This data set in a line: yeast display, Sf9 membrane polyspecificity reagent, FACS + sequencing; frameworks hold sequencing errors. Summed up:
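A synthetic nanobody library was expressed on Saccharomyces cerevisiae BJ5465 by galactose induction for 36–48 hours. The library was stained for 1 hour at 4 °C with 10% biotinylated, detergent-solubilized Sf9 membrane reagent and enriched with streptavidin microbeads before FACS. Low and high (top ~1%) gates were set on anti-HA fluorescence for expression and streptavidin fluorescence for reagent binding, and each polyreactivity label reflects the gate of origin.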
In the case of “QVQLVESGGGLVQAGGSIRLSCAASGRTFGYYAMGWYRQAPGKERELVAAITRTGGSTHYADSVKGRFTISRDNAKNTVYLQMNSLKPEDTAVYYCALDYRYTIPYDYWGQGTQVTVSS”, the “polyreactivity (PSR sort gate)” value was “low polyreactivity”.

Take “QVQLVESGVGLVQAGGSLRLSCAASGSTFYVYTMGWYRQAPGKERELVAAISLSGDNTYYADSVKGRFTISRDNAKNTVYLQMNSLKPEDTAVYYCAADVFYSPSAQKYDSWGQGTQVTVSS”: the “polyreactivity (PSR sort gate)” value is listed as “low polyreactivity”.

Take “QVQLVESGGGLVQAGGSLRLSCAASGFIFQRYAMGWYRQAPGKERELVAAISWSGGITYYADSVKGRFTISRDNAKNTVYLQMNSLKPEDTAVYYCAAGLAVGDYYWGQGTQVTVSS”: the “polyreactivity (PSR sort gate)” value is on record as “high polyreactivity”.

Take “QVQLVESGGGLVQAGGSLRLSCAASGSTFWSNTMGWYRQAPGKERELVASITTSGGRTYYADSVKGRFTISRDNAKNTVYLQMNSLKPEDTAVYYCAAGGRVRRRYGYWGQGTQVTVSS”: the “polyreactivity (PSR sort gate)” value is on record as “high polyreactivity”.

Consider “QVQLVESGGGLVQAGGSLRLSCAASGSTFYLNAMGWYRQAPGKERELVATKNSSGSTYNADSVKGRFTISRDNAKNTVYLQMNILKPEDTAVYYCNAYGSDRLSLDDYWGQGTQVTVSS”, for which the “polyreactivity (PSR sort gate)” value was “low polyreactivity”.

Consider “QVQLVESGGGLVQAGGSLRLSCAASGSIIGRYAMGWYRQAPGKERELVAAISTGGGRTYYADSVKGRFTISRDNAKNTVYLQLNSLKPEDTAVYYCNAGPYKGWGRMDYWGQGTQVTVSS”, for which the “polyreactivity (PSR sort gate)” value is listed as “high polyreactivity”.

With “QVQLVESGGGLLQAGGSLRLICAASGRIFQTYAMGWYRQAPGKERELVARIRLSGGSTYSADSVKGRFTISRDNAKNTGYLQKNSQKPEDTAVYSCAARFSRARFTDPYYYWGQGTQVTVSS”, the “polyreactivity (PSR sort gate)” value is “high polyreactivity”.

As to “QVQLVESGGGLVQAGGSLRLSCAASGGISTAYTMGWYRQEPGKERELVADITRSGGRTYYADSVKGRFTISRDTAKNNVYLQMNSLKPEDTAVYYCARTYYYRFNYWGQGTQVTVSS”, the “polyreactivity (PSR sort gate)” value is “high polyreactivity”.

Consider “QFQLVESGGGLVQAGGSLRLSCAASGRIVGRNAMGWYRQAPGKERELVAAISGNGGSTYYADSVKGRFTISRDNAKINVYLQMNSLKPEDTAVYYCATKYFSRMDYWGKGTQVTVSS”, for which the “polyreactivity (PSR sort gate)” value is given as “high polyreactivity”.

As for “QVQRVESGGGIVQAGGSLRLSCAASGSTFSYYAMGWYRQAPGKERELVAAISSSGGNTYYADSVKGRFTISRDNAKNTVYLQMNSLKPEDTAVYYCAKLYRYIYGGMDYWGQGTQVTVSS”, the “polyreactivity (PSR sort gate)” value is recorded as “high polyreactivity”.

In the case of “QVQLVESGGGLVQAGGSIRLSCAASGSISPQNVMGWYRQAHGKERELVAAITGGGSTNYADSVKGRFTISRDNAKNTVYLQMNSLIPEDTAVYYCAADGRYAYGYNHWGQGTQVTVSS”, the “polyreactivity (PSR sort gate)” value was “low polyreactivity”.

For “QVQLVESGGGLVQAGGSLRLSCAASGGTFYTYAMGWYRQAPGKERELVAAISRSGGRTYYADSVKGRFTISRDNAKNTVYLQMNSLKPEDTAVYYCAAVRIARAVQDYDYWGQGTQVTVSS”, the “polyreactivity (PSR sort gate)” value is “high polyreactivity”.

Regarding “QVQLVESGGGLVQAGGSLRLSCADSGSTFRYYAMGWYRQAPGKERELVAAITKNGGSTYYADSVKGRFTISRDNAKNTVYLEMNSLKPEDTAVYYCAVQFSYSGWYYVSYYYWGQGTQVTVSS”, the “polyreactivity (PSR sort gate)” value is listed as “high polyreactivity”.

Turning to “QVQLVESGGGLVQAAGSLRLSCAASGITFSWYAMGWYRQAPGNERALVASITQSGGSTYYADSVKGRFTISRDNAKNTVYLQMTCLKPEVTAVYYCSKRYLKPVYCYVRNYGSDYWGQGTQVTVSS”, the “polyreactivity (PSR sort gate)” value is reported as “low polyreactivity”.

On to “QVQLVESGGGLVQAGGSLRLSCAASGIIFKYYVMGWYRQAPGKERELVAGIRSGGNTYYADSVKGRFTISRDNAKNTVYFQMNSLKPEDTAVYYCNARPQFRFTDSYDYWGQGTQVTVSS”, for which the “polyreactivity (PSR sort gate)” value is “high polyreactivity”.

Turning to “QVQLVESGGVLVQAGGSLRLSCAASGGIFNQYAMGWYRQAPGKERELVAAISSSGSSTYYADSVKGRFTISRDNAKNTVYLLMNSLKPEDTAVYYCNTYYSYQRVGYWGQGTQVTVSS”, the “polyreactivity (PSR sort gate)” value was “high polyreactivity”.

Values taken from the nanobody polyreactivity screen of Harvey et al. (2022).
